Consider eleven molecules from patent US9889184B2 (priority 2008, dated 2018).

Where a chain is given by its changes, count along the chain named. No end group written: not given here.

In experiment [1] the test system is Fusarium graminearum. The experiment is classed as cell-based. Conditions: for fungicidal activity in combination with NaD1: F. graminearum, conditions of the fungal bioassay; for fungicidal activity of the proteinase inhibitor on its own: not combined with NaD1, F. graminearum; for effect on hyphal growth: concentrations up to 18.5 uM in the absence of NaD1.
For experiment [2], the system named is Fusarium oxysporum f. sp. vasinfectum (Fov). Kind of experiment: Growth inhibition of Fov by NaD1 (microtitre OD595). In kind it is cell-based. As for the experimental part: Lyophilized NaD1 (500 μg) was dissolved in 400 μL of stock buffer (200 mM Tris-HCl pH 8.0, 2 mM EDTA, 6 M guanidine-HCl, 0.02% [v/v] Tween-20). Reduction buffer (stock buffer with 15 mM dithiothreitol [DTT]) was added (44 μL) followed by a 4.5 h incubation at 40° C. The reaction mixture was cooled to RT before iodoacetic acid (0.5 M in 1 M NaOH, 55 μL) was added and the incubation continued in the dark for 30 min at RT. A Nanosep omega (Registered) spin column (3K molecular weight cut off, PALL Life Sciences) was used to remove salts, DTT and iodoacetic acid and the protein concentration was determined using the BCA protein assay (Pierce). The effect of reduced and alkylated NaD1 (NaD1R&A) on the growth of Fusarium oxysporum (Fov) was measured as described herein.
Antifungal activity against Fusarium oxysporum f. sp. vasinfectum (Fov, Australian isolate VCG01111 isolated from cotton; from Wayne O'Neill, Farming Systems Institute, DPI, Queensland, Australia), Thielaviopsis basicola (gift from David Nehl, NSW DPI, Narrabri, Australia), Verticillium dahliae (from Helen McFadden, CSIRO Plant Industry, Black Mountain, Australia), Leptosphaeria maculans (from Barbara Howlett, University of Melbourne, Victoria, Australia) and Aspergillus nidulans (from Michael Hynes, University of Melbourne) was assessed essentially as described in Broekaert et al, 1990. Spores were isolated from sporulating cultures growing in either half-strength potato dextrose broth (PDB) (Fov and T. basicola), Czapeck-Dox Broth (V. dahliae) (Difco Laboratories) or 10% (v/v) clarified V8 medium (L. maculans and A. nidulans) by filtration through sterile muslin. Spore concentrations were determined using a hemocytometer and adjusted to 5×10^4 spores/mL in the appropriate growth medium. Spore suspensions (80 μL) were added to the wells of sterile 96-well flat-bottomed microtitre plates along with 20 μL of filter-sterilized (0.22 μm syringe filter; Millipore) NaD1, or water to give final protein concentrations of 0-10 μM. The plates were shaken briefly and placed in the dark at 25° C. without shaking until the optical density at 595 nm of the water control reached approximately 0.2 (24-72 h depending on growth rate). Hyphal growth was estimated by measuring the optical density at 595 nm using a microtitre plate reader (SpectraMax Pro M2; Molecular Devices). Each test was performed in quadruplicate.

The subject of experiment [3] is Fov hyphae. Kind of experiment: Uptake of NaD1 into hyphae (immunogold EM, bimane fluorescence, immunoblot). The experiment is classed as cell-based, Fusarium oxysporum f. sp. vasinfectum. The settings on record: fluorescence microscopy, live hyphae. The protocol: Fov hyphae were grown as described above prior to the addition of NaD1 (10 μM final concentration) to 1 mL of the culture. Samples (100 μL) were collected after 0, 5, 10, 30, 60, 90 and 120 min. Hyphae were collected by centrifugation (10 min, 10,000×g) and the supernatant was stored at −20° C. for analysis. Hyphae were washed (2×10 min) with KCl (0.6 M) to remove any ionically bound protein before they were resuspended in 50 mM CAPS buffer (pH 10.0) containing 10 mM DTT for 20 min. Hyphae were collected by centrifugation and the supernatant, containing cell wall proteins, was collected for analysis. The pellet (containing cells) was resuspended in water and the cells were lysed using glass beads (Sigma, 60 mg) and vortexing (3×10 min). Cellular debris was removed by centrifugation (16,000×g, 10 min) and the supernatant collected for analysis. All samples were then analyzed by SDS-PAGE and immunoblotting.
Fov hyphae were grown for 18 h in half-strength PDB (5 mL) with vigorous shaking at 25° C. from a starting spore suspension of 5×10^4/mL. Hyphae were then treated with 2 μM NaD1 or an equivalent volume of water for 2 h at RT with gentle agitation, and were washed twice in 0.6 M KCl and three times in PBS before fixation in 4% (w/v) paraformaldehyde in PBS for 1 h at 4° C. Hyphae were again washed three times in PBS before dehydration in a standard ethanol series (15 min each, 50%, 70% and 90% ethanol, 3×15 min 100% ethanol). Hyphae were then infiltrated with LR White resin (ProSciTech) for 1 h at RT, followed by 18 h at 4° C., 1 h at RT and 24 h at 60° C. Fresh LR White resin was used at each step. Ultrathin sections were cut and placed on Formvar coated gold grids.
Grids were blocked with PBS containing 8% (w/v) BSA and 1% (v/v) Triton X-100 for 1 h and labeled with α-NaD1 antibodies (2 μg/mL in blocking buffer) for 1 h. Grids were washed in blocking buffer (3×10 min) and labeled with 15 nm gold particle labeled goat α-rabbit IgG antibodies (ProSciTech diluted 1 in 20 for 1 h. Grids were washed again in blocking solution (3×10 min) followed by water (15 min) before being air-dried. A JEOL JEM2010HC x e80 KV transmission electron microscope was used to examine labeled grids. Pictures were taken on Kodak EM film (ProSciTech) and developed in a dark room before scanning on a Hewlett Packard Scanjet 5P scanner.
Hyphae grown for 18 h as described were treated with NaD1-bimane (2 μM) for between 10 min and 6 h. Hyphae were then visualized by fluorescence microscopy using an MWU filter (excitation wavelength of 330-385 nm).
(A western blot detects proteins with antibodies after separation by electrophoresis.)

Experiment [4] deals with Fusarium oxysporum species. The settings on record: cited from earlier work.
Experiment [5] has as its target T1, cathepsin L (Homo sapiens, UniProt P07711).
T1 construct: purchased Sigma
Kind of experiment: Cysteine proteinase inhibitory activity, ZFR-MCA substrate. Conditions: bacterially expressed cystatin, FIG. 1E. In kind it is biochemical. As for the experimental part:
(§1) The cysteine proteinase inhibitory activity of bacterially expressed NaCys1, NaCys3 and NaCys4 was determined using the enzymes papain and cathepsin L (Sigma). The assay mixtures (final volume 250 uL) contained papain or cathepsin L (50 nM final concentration), 100 uL of ZFR-MCA substrate (0.2 mM, Bachem, Melo et al., 2001), 100 uL of reaction buffer (0.2 M sodium acetate, 4 mM EDTA, 8 mM DTT, pH 5.5) and 50 uL of cystatin (for 0-20 uM final concentration). Released fluorescence was measured at 460 nm (excitation at 340 nm) after a 10 or 50 min incubation for papain and cathepsin L, respectively, at 37° C.

The target in experiment [6] is T2, papain (Carica papaya, UniProt P00784).
T2 construct: purchased Sigma
T2 sequence (P00784 134-345): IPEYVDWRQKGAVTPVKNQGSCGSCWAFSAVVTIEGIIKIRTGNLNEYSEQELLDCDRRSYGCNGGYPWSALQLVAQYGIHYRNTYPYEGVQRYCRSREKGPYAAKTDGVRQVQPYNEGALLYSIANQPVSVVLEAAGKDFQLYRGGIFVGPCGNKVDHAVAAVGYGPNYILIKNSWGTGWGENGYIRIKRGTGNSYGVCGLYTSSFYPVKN
The experiment is described as above. The settings on record: bacterially expressed cystatin, FIG. 1D. The experiment is classed as biochemical. As for the experimental part:
as §1

T1 sequence (P07711 114-333, species assumed): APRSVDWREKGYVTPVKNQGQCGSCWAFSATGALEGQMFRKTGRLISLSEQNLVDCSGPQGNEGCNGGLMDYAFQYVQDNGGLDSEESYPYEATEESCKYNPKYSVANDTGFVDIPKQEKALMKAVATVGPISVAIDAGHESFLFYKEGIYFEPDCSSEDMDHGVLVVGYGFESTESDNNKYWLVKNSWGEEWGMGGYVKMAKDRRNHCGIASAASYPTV

For the molecule `CC(C)C[C@H](NC(=O)[C@H]1O[C@@H]1C(=O)O)C(=O)NCCCCN=C(N)N` [E64, reference compound], in experiment [1], the “fungicidal activity in combination with NaD1” value is “no fungicidal activity” and the “fungicidal activity of the proteinase inhibitor on its own” value was “no fungicidal activity”.

As to “NaD1 labeled with FITC: NaD1 labeled with FITC via reactive amine groups (RECKTESNTFPGICITKPPCRKACISEKFTDGHCSKILRRCLCTKPC; ends and bridges not checked; also: FITC label via reactive amine groups (position not given here); UniProt Q8GTM0 26-72, looked up)”, the “antifungal activity of fluorophore-labeled NaD1” value in experiment [2] is on record as “not biologically active”.

On to “NaD1-bimane: NaD1 labeled with the fluorophore bimane amine at carboxyl residues (RECKTESNTFPGICITKPPCRKACISEKFTDGHCSKILRRCLCTKPC; ends and bridges not checked; also: bimane amine fluorophore label at carboxyl residues (position not given here); UniProt Q8GTM0 26-72, looked up)”, for which the “antifungal activity of fluorophore-labeled NaD1” value in experiment [2] is “retained full antifungal activity”. Besides, the “time at which internalization was observed” value in experiment [3] fell in the range of 20 to 30 min.

For “PhD1A: defensin isolated from petunia (Petunia hybrida) flowers (SEQ ID NO:24) (ATCKAECPTWDGICINKGPCVKCCKAQPEKFTDGHCSKILRRCLCTKPC; Petunia hybrida (PhD1A))”, in experiment [4], the “activity in inhibiting Fusarium oxysporum species” value is listed as “active in inhibiting”.

Regarding “Tomdef2: defensin isolated from tomato flowers (SEQ ID NO:22) (QQICKAPSQTFPGLCFMDSSCRKYCIKEKFTGGHCSKLQRKCLCTKPC; Solanum lycopersicum var. cerasiforme (Tomdef2))”, the “activity in inhibiting Fusarium oxysporum species” value in experiment [4] was “active in inhibiting”.

B1: Soybean trypsin inhibitor Type II-S: serine proteinase inhibitor (21 kDa), Sigma T9128 (protein, UniProt P01070 25-205, looked up)
Trypsin inhibitor A: DFVLDNEGNPLENGGTYYILSDITAFGGIRAAPTGNERCPLTVVQSRNELDKGIGTIISSPYRIRFIAEGHPLSLKFDSFAVIMLCVGIPTEWSVVEDLPEGPAVKIGENKDAMDGWFRLERVSDDEFNNYKLVFCPQQAEDDKCGDIGISIDHDDGTRRLVVSKNKPLVVQFQKLDKESL
With B1, in experiment [1], the “fungicidal activity in combination with NaD1” value is on record as “no fungicidal activity” and the “fungicidal activity of the proteinase inhibitor on its own” value is reported as “no fungicidal activity”.

B2: PhD2: plant defensin from Petunia hybrida, accession Q8H6Q0 (protein)
chain: MARSICFFAVAILALMLFAAYETEAGTCKAECPTWEGICINKAPCVKCCKAQPEKFTDGHCSKILRRCLCTKPCATEEATATLANEVKTMAEALVEEDMME
modifications: Petunia hybrida (PhD2Full length)
Regarding B2, the “activity in inhibiting Fusarium oxysporum species” value in experiment [4] is “active in inhibiting”.

B3: NaCys1: cystatin from Nicotiana alata, bacterially expressed (SEQ ID NO:2) (protein)
chain: MATLGGIREAGGSENSLEINDLARFAVDEHNKKQNALLEFGKVVNVKEQVVAGTMYYITLEATEGGKKKAYEAKVWVKPWQNFKQLEDFKLIGDAASA
modifications: Nicotiana alata (NaCys1)
As for B3, the “inhibition of Cathepsin L” value in experiment [5] was “better inhibitors of Cathepsin L than NaCys4”. In addition, in experiment [6], the “inhibition of the cysteine proteinase papain” value is on record as “strong inhibitors”. The “effect on hyphal growth” value in experiment [1] is on record as “no effect on hyphal growth”.

B4: NaCys4: cystatin from Nicotiana alata (SEQ ID NO:8), tryptophan to arginine substitution at position 80 (protein)
chain: B3 chain with T3N, W80R
modifications: Nicotiana alata (NaCys4)
On to B4, for which the “inhibition of the cysteine proteinase papain” value in experiment [6] was “relatively poor inhibitor”.

B5: NaCys3: cystatin from Nicotiana alata, bacterially expressed (SEQ ID NO:6) (protein)
chain: B3 chain with T3N
modifications: Nicotiana alata (NaCys3)
B5: in experiment [5], the “inhibition of Cathepsin L” value is on record as “better inhibitors of Cathepsin L than NaCys4”. Besides, the “inhibition of the cysteine proteinase papain” value in experiment [6] is listed as “strong inhibitors”. The “effect on hyphal growth” value in experiment [1] is reported as “no effect on hyphal growth”.

B6: chicken egg white cystatin: cysteine proteinase inhibitor (12.7 kDa), Sigma C8917 (protein, UniProt P01038 24-139, looked up)
Cystatin: SEDRSRLLGAPVPVDENDEGLQRALQFAMAEYNRASNDKYSSRVVRVISAKRQLVSGIKYILQVEIGRTTCPKSSGDLQSCEFHDEPEMAKYTTCTFVVYSIPWLNQIKLLESKCQ
For B6, in experiment [1], the “fungicidal activity in combination with NaD1” value is “no fungicidal activity” and the “fungicidal activity of the proteinase inhibitor on its own” value was “no fungicidal activity”.
